This data set has as its system HNRNPH1 isoform A (Homo sapiens). Briefly: MST. The conditions noted are these: 50 mM Tris pH 8.0, 300 mM KCl, 0.02% NP-40, 10% glycerol, 0.5 mg/ml heparin, 22 C; 20 nM RNA.

Drawing on patent US20210380978, this text covers Kd for one substance.

As usually defined, the Kd is the equilibrium constant for the complex coming apart.

As to INCA1 major eCLIP peak 50-nt RNA oligo, the Kd was 762 nM.
